Source: patent US20030191054A1

Assays:
[1] = biological target: purified recombinant BAG-1 (beginning at residue 116 of SEQ ID NO:2) (human); assay: surface plasmon resonance (BIAcore), BAG protein immobilized
[2] = biological target: purified recombinant BAG-2 (SEQ ID NO:4) (human); assay: as above
[3] = biological target: purified recombinant BAG-3 (SEQ ID NO:6) (human); assay: as above
[4] = biological target: purified recombinant BAG-1 (beginning at residue 116 of SEQ ID NO:2) (human); assay: surface plasmon resonance (BIAcore), KD=Kd/Ka
[5] = biological target: purified recombinant BAG-2 (SEQ ID NO:4) (human); assay: surface plasmon resonance (BIAcore), KD=Kd/Ka
[6] = biological target: purified recombinant BAG-3 (SEQ ID NO:6) (human); assay: surface plasmon resonance (BIAcore), KD=Kd/Ka

koff [1]: 0.0003 s⁻¹
kon [1]: 210000 M⁻¹ s⁻¹
koff [2]: 0.0005 s⁻¹
kon [2]: 210000 M⁻¹ s⁻¹
koff [3]: 0.0017 s⁻¹
kon [3]: 240000 M⁻¹ s⁻¹
Kd [4]: 1.4 nM
Kd [5]: 2.4 nM
Kd [6]: 7.4 nM
Substance: Hsc70 in the soluble phase of the BIAcore assay
